Consider three molecules from patent US20250313631A1 (HUMMINGBIRD BIOSCIENCE PTE, published 2025).

For experiment [1], the target named is T1, recombinant cynomolgus macaque VISTA (His-tagged) (cynomolgus macaque, UniProt A0A7N9IB00 33-194).
T1 construct: also called cyno VISTA; cynomolgus monkey VISTA
Put plainly: BLI (Octet QK384): His-tagged cynomolgus VISTA on anti-Penta-HIS tips, V4 1433 to 179.1 nM as analyte, global fit.
Description: (§1) All measurements were performed at 25° C. with agitation at 1000 rpm. Kinetic measurements for antigen binding were performed by loading anti-VISTA antibody at different concentrations (indicated in the Figures) for 120 s, followed by a 120 s dissociation time by transferring the biosensors into assay buffer containing wells. Sensograms were referenced for buffer effects and then fitted using the Octet QK384 user software (Pall ForteBio, USA).
(§2) Kinetic responses were subjected to a global fitting using a one site binding model to obtain values for association (kon), dissociation (koff) rate constants and the equilibrium dissociation constant (KD). Only curves that could be reliably fitted with the software (R²>0.90) were included in the analysis.

Experiment [2] has as its target T2, recombinant human VISTA (His-tagged) (human, UniProt Q9H7M9 33-194).
T2 construct: bought soluble protein (Sino Biological); also called hVISTA; human VISTA polypeptide
Put plainly: BLI (Octet QK384): His-tagged human VISTA on anti-Penta-HIS tips, V4 1000 to 31.3 nM as analyte, global fit; value of the table column kdis(1/s). A general note: Biolayer interferometry detects binding as a change in optical thickness at a sensor tip.
Description: as §1, §2

Experiment [3] concerns the target T2, recombinant human VISTA (His-tagged). Put plainly: BLI (Octet QK384): His-tagged human VISTA on anti-Penta-HIS tips, V4 1000 to 31.3 nM as analyte, global fit.
Description: as §1, §2
Experiment [4] shares this target. Put plainly: ELISA, plate coated with human VISTA. For orientation: An ELISA detects its analyte on a solid surface through an enzyme-linked reagent.
Experiment [5] has as its target T1, recombinant cynomolgus macaque VISTA …. Put plainly: BLI (Octet QK384), His-tagged VISTA on anti-Penta-HIS tips, antibody as analyte.
Description: as §1, §2
Experiment [6] concerns the target T3, recombinant mouse VISTA (His-tagged) (mouse, UniProt Q9D659 33-191).
T3 construct: also called murine VISTA; mVISTA
T3 sequence (looked up): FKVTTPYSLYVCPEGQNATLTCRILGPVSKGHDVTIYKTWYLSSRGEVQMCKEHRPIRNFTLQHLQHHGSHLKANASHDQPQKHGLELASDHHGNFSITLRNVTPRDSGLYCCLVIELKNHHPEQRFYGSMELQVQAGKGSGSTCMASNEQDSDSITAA
Described as above.
Description: as §1, §2

A further experiment addresses T4, human B7H4 (human, UniProt Q7Z7D3 25-258, limits assumed).
T4 construct: also called VTCN1
T4 sequence (looked up): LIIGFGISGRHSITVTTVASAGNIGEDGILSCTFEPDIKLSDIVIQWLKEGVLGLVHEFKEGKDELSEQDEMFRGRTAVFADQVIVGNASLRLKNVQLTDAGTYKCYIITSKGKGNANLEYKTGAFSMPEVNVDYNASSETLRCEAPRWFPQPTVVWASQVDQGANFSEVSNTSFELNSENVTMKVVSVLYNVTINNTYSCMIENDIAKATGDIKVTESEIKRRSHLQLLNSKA
Put plainly: ELISA, plate coated with the antigen.

In experiment [7] the target is T5, cynomolgus macaque VISTA expressed on cells (cynomolgus macaque, UniProt A0A7N9IB00 33-311).
T5 construct: whole, on cells; also called NHP VISTA on HEK293T cells; VISTA on NHP CD11b+ myeloid cells
Put plainly: flow cytometry, HEK293T cells expressing the NHP VISTA ortholog.
Description: To identify myeloid cells, PBMCs were further incubated with CD45 FITC and CD11b PE. Cells were washed again and resuspended in 200 μL of FACS flow buffer (PBS with 5 mM EDTA) for flow cytometric analysis using MACSQuant 10 (Miltenyi). After acquisition, all raw data were analyzed using Flowlogic software. Cells were gated using forward and side scatter, and the percentage of positive cells was determined.

Experiment [8] deals with T2, recombinant human VISTA (His-tagged). Put plainly: antigen-binding ELISA; HMBD-002 in F7, day 10 at 40°C.
Experiment [9] shares this target. Put plainly: antigen-binding ELISA; HMBD-002 in F7, day 20 at 40°C.
For a further experiment, the target named is T6, human B7H7 (human, UniProt Q9UM44 23-344).
T6 construct: also called HHLA2
T6 sequence (looked up): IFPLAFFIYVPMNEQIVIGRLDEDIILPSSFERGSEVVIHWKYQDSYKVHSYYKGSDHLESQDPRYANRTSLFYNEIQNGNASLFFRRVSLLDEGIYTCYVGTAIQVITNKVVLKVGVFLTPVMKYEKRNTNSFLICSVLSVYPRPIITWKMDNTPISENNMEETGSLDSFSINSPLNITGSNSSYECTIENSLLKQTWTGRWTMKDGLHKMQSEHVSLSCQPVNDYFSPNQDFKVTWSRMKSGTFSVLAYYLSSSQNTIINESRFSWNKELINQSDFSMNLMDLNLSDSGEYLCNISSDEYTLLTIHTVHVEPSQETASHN
Put plainly: ELISA, plate coated with human B7H7, antibody titrated.

Experiment [10] deals with T2, recombinant human VISTA (His-tagged). Put plainly: ELISA on coated human VISTA, antibody diluted in buffer of pH 7.
Description: (§3) 384-well plates were coated with 1 μg/ml of target antigen diluted in PBS for 16 hrs at 4° C. […] After washing, plates were developed with colorimetric detection substrate 3,3′,5,5′-tetramethylbenzidine (Turbo-TMB; Pierce) for 10 min.
Experiment [11] has the same target. Put plainly: antigen-binding ELISA; HMBD-002 in F10, day 30 at 40°C.
Another experiment concerns the target T7, human B7H3 (human, UniProt Q5ZPR3 29-461, limits assumed).
T7 construct: also called CD276
T7 sequence (looked up): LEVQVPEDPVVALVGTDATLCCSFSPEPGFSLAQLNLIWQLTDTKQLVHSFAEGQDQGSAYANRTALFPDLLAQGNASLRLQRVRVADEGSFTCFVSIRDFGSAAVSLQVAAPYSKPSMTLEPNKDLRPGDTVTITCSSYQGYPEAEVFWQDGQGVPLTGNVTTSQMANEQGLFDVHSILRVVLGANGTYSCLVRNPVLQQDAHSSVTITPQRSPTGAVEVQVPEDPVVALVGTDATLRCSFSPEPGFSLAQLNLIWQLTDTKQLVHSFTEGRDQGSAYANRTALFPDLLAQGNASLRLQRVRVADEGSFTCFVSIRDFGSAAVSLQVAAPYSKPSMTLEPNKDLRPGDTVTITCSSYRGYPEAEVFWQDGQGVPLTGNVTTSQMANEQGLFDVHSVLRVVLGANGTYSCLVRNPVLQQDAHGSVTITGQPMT
Put plainly: ELISA, plate coated with human B7H3, antibody titrated.

Experiment [12] has as its target T2, recombinant human VISTA (His-tagged). Put plainly: antigen-binding ELISA; HMBD-002 in F9, day 30 at 40°C.

A value given as a limit tells only on which side of the number the result lay.

Description for human B7H3: as §3
Description for human B7H7: as §3

B1: anti-VISTA clone 4M2-C12 IgG1 (antibody)
heavy: not shown
light: DIVITQTPAILSTSPGEKVTMTCRASSSVGYIHWYQQKPGSSPKPWIYATSNLASGVPARFSGSGSGTSNSLTITRVEAEDAATYYCQQWSSYPPITFGGGTKLEVKRTVAAPSVFIFPPSDEQLKSGTASVVCLLNNFYPREAKVQWKVDNALQSGNSQESVTEQDSKDSTYSLSSTLTLSKADYEKHKVYACEVTHQGLSSPVTKSFNRGEC
notes: mouse variable regions on human IgG1/kappa constant regions; also called V4; V4pr
The koff is the rate constant with which the complex falls apart. Usually kon stands for the rate constant with which the complex forms. A word on the EC50 (read off the curve): it is the concentration giving half of the maximal effect. One may read the Kd as the free concentration of one partner at which half of the binding sites on the other are occupied at equilibrium, for simple one-to-one binding. Take B1: the off-rate (koff) in experiment [1] and in [2] was less than 1e-07 s⁻¹ in each case. Moreover, the values for the kon in experiment [1] and in experiment [3] were 40200 M⁻¹ s⁻¹ and 45400 M⁻¹ s⁻¹, respectively. In [4], the “EC50 (read off the curve)” value is approximately 10 pM. In addition, the Kd in experiment [5] is less than 1 pM; in [6] it was 113000 pM.

B2: anti-VISTA clone V4-C26 IgG1 (antibody)
heavy: not shown
light: EIVLTQSPATLSLSPGERATLSCRASSSVGYIHWYQQKPGQAPRPIIYTTSNRATGIPARFSGSGSGTDNTLTISSLEPEDSAVYYCQQWSSYPPITFGGGTKLEVKRTVAAPSVFIFPPSDEQLKSGTASVVCLLNNFYPREAKVQWKVDNALQSGNSQESVTEQDSKDSTYSLSSTLTLSKADYEKHKVYACEVTHQGLSSPVTKSFNRGEC
For the molecule B2, the binding result with human B7H4 is listed as “no binding (tested: log -7.5 M)”.

B3: V4-C26 hIgG4 (antibody)
heavy: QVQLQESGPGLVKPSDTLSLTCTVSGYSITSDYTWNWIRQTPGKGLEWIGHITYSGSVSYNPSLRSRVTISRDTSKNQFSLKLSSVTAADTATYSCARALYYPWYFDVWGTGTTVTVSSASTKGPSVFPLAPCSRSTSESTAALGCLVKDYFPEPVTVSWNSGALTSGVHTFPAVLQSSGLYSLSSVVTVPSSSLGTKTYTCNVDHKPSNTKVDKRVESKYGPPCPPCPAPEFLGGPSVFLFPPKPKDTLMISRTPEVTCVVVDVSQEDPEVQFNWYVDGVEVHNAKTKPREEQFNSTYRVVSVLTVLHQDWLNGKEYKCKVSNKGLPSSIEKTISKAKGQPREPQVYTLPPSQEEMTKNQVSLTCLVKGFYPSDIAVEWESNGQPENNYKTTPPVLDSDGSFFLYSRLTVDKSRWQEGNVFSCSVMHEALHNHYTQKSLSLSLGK
light: B2 light
notes: human IgG4 (S228P)/kappa format; also called HMBD-002; HMBD-002-V4C26
As usually defined, the EC50 is the midpoint of the concentration-response curve. Consider B3, for which the EC50 worked out at 2570 pM in experiment [7]; 33.9 pM in experiment [8]; 20.6 pM in [9]; 34.3 pM in experiment [10]; 27 pM in experiment [11]; 23.7 pM in experiment [12]. In addition, the binding result with human B7H7 and with human B7H3 was “no binding (tested: about 3e-8 M)” each time.
